Experiment [1] concerns the target GRB2-SH2 domain, purified, Atto488-labelled (UniProt P62993). Kind of experiment: MST; 100 nM Atto488-labelled GRB2-SH2 domain, peptide titrated; pEGFR phosphopeptide, comparator; cited to a figure and Ahmed et al., 2015.
Experiment [2] deals with GRB2 K109R mutant, bacterially expressed and purified (UniProt P62993). Nature of the experiment: MST, 100 nM Atto488-labelled K109R GRB2, peptide titrated.
Experiment [3] has as its target RING2 E3 ubiquitin ligase, endogenous, in HEK293T cells (UniProt Q99496). Nature of the experiment: GRB2 immunoprecipitation-mass spectrometry in HEK293T cells (mean of three data sets) [panel G].
The next experiment deals with HERC1 (human) (UniProt Q15751). The description is as above.
The target of experiment [4] is CBLL1 E3 ubiquitin ligase, endogenous, in HEK293T cells (UniProt Q75N03). The description is as above.
The target in experiment [5] is Histone H2AX, endogenous, in HEK293T cell extracts (UniProt P16104). Nature of the experiment: Strep-Tactin purification of Strep-GRB2 from HEK293T nuclear extracts, mass spectrometry (mean of three data sets) [panel A].

Chain of HERC1 (human) (Q15751 whole entry): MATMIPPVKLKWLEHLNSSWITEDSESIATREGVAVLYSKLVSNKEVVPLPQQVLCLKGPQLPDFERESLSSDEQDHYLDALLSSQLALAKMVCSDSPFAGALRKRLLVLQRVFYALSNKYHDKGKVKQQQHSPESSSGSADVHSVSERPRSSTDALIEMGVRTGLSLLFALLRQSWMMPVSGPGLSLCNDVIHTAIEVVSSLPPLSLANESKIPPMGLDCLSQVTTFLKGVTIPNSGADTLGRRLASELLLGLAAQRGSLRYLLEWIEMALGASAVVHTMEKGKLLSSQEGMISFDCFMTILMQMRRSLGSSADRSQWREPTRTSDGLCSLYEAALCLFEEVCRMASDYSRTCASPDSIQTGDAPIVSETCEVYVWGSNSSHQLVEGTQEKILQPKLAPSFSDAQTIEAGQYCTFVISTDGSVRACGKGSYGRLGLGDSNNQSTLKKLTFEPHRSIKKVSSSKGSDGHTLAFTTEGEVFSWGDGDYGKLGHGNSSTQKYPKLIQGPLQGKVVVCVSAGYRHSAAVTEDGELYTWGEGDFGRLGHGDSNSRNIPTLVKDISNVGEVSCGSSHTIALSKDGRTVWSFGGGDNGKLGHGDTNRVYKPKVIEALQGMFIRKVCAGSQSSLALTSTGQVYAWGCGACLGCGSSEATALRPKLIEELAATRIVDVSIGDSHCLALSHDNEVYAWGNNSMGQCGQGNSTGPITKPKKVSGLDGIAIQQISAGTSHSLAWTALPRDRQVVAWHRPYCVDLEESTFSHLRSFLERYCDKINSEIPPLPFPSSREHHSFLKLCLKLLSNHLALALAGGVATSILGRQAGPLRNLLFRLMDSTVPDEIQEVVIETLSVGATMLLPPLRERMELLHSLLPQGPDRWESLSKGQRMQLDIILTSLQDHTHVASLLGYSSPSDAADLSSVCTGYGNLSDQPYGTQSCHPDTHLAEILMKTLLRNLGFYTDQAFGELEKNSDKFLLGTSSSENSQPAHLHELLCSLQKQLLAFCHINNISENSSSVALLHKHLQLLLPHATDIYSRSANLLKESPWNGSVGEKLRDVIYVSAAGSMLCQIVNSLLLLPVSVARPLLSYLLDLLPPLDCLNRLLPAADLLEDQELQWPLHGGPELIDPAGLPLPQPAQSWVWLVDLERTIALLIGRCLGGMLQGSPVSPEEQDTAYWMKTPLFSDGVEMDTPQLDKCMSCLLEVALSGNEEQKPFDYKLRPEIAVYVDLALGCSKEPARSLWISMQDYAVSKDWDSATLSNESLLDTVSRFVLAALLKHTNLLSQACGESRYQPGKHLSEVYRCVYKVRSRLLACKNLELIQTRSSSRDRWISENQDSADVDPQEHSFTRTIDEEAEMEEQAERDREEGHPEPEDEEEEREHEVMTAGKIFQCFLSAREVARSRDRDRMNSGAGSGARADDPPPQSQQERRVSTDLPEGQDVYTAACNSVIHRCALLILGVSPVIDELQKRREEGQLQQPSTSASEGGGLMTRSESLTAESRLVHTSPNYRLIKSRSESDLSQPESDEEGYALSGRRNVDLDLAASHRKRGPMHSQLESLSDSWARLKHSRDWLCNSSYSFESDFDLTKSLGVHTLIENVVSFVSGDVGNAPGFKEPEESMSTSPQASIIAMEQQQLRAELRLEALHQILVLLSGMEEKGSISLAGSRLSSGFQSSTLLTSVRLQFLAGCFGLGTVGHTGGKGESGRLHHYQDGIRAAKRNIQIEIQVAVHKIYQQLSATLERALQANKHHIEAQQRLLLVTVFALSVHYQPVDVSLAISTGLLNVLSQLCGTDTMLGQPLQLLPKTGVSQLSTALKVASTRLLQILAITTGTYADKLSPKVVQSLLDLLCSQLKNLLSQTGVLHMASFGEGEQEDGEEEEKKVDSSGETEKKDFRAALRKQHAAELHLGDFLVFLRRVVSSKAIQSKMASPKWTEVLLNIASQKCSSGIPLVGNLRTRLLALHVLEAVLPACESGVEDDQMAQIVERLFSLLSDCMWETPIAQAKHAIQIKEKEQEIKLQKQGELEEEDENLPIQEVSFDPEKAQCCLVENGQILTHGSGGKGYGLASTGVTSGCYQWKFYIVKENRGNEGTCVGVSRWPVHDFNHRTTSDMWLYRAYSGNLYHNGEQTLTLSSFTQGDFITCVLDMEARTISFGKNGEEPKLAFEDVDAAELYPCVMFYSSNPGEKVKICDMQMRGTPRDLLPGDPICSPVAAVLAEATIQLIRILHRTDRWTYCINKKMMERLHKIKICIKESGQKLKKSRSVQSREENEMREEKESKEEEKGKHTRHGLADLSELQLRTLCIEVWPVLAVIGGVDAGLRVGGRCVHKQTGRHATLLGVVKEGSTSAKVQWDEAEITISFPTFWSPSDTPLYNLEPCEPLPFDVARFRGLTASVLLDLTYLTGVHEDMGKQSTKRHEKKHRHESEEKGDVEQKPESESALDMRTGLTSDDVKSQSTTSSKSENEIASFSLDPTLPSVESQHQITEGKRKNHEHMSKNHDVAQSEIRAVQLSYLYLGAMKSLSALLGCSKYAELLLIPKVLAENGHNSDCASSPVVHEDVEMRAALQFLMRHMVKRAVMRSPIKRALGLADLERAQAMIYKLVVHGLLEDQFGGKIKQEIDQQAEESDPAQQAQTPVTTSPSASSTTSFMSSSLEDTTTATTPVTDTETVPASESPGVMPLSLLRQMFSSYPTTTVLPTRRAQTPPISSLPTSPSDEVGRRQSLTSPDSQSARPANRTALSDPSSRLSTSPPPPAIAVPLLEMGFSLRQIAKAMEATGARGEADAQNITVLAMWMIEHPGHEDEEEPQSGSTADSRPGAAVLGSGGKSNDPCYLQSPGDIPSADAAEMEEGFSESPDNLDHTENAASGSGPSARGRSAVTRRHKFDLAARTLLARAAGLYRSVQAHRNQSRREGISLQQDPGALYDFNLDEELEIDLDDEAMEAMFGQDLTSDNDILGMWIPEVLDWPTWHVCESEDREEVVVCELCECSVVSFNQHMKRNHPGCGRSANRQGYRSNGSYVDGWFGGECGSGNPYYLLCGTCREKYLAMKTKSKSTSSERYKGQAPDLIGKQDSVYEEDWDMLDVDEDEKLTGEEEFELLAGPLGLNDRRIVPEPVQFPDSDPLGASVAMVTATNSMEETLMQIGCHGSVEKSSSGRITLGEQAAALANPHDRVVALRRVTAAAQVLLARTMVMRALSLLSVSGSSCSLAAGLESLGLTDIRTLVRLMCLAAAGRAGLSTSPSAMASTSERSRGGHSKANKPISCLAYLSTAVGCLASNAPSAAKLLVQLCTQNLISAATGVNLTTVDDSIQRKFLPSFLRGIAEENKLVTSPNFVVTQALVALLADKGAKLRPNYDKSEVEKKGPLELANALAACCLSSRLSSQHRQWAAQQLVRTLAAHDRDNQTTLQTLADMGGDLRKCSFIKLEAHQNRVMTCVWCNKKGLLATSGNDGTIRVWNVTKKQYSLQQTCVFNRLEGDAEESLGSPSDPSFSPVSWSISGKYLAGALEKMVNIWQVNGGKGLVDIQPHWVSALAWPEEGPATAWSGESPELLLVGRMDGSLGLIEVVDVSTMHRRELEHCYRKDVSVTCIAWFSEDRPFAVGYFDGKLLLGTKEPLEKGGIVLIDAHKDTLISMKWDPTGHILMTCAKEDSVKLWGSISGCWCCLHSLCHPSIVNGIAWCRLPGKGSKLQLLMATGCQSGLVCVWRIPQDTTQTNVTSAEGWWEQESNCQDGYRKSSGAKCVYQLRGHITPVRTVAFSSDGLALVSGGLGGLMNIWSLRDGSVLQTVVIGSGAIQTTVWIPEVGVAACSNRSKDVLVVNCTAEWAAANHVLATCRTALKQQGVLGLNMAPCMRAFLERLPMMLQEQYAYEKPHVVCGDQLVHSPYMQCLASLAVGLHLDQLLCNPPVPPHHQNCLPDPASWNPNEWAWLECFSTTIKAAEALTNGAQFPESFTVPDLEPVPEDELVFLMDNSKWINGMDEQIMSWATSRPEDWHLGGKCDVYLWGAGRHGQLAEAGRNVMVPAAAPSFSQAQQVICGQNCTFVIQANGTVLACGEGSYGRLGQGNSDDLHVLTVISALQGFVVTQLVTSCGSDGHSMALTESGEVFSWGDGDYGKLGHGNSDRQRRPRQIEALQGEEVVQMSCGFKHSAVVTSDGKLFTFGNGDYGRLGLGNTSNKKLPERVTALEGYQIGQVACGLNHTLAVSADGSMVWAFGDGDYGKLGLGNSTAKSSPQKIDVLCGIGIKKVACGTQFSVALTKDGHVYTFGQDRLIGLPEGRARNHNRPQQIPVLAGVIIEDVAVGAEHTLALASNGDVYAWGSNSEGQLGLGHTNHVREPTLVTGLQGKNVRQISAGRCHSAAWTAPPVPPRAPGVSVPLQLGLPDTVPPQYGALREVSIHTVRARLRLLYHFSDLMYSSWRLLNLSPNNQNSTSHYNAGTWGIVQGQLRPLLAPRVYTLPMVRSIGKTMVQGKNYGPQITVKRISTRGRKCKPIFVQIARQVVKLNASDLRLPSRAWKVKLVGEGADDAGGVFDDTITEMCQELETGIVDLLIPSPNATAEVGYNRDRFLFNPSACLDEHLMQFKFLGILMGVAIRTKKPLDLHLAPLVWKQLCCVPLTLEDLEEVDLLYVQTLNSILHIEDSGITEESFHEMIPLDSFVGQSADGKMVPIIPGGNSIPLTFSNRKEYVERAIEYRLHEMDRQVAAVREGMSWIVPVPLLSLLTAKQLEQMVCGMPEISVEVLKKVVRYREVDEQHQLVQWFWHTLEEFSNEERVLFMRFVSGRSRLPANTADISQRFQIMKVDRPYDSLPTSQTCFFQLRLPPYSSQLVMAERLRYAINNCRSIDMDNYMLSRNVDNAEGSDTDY
Chain of RING2 E3 ubiquitin ligase, endogenous, in HEK293T cells (Q99496 2-336 limits assumed): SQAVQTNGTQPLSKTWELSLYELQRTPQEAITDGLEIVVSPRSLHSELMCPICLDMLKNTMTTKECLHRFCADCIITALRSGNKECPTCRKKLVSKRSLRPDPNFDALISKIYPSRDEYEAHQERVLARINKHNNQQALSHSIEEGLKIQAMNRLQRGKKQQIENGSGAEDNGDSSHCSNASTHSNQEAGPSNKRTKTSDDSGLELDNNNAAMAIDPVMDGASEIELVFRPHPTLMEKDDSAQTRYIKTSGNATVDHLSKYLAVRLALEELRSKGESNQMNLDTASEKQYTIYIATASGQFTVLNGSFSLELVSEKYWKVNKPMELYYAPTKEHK

The Kd is the concentration at which binding is half-saturated. A high value points to a looser complex. Turning to “Phosphorylated EGFR synthetic peptide FLPVPE(pY)INQSVPKR”, the Kd in experiment [1] amounted to 7.2 µM; in experiment [2], 2.6 µM.
As for “Strep-tagged wild-type GRB2 expressed in cells (HEK293T; reconstituted GRB2-KO cells) (from UniProt P62993 1-217)”, the Coverage(%) in experiment [3] was found to be 15%; with HERC1 (human) it was 0%; in experiment [4] it was 3%; in experiment [5], 71%. The Peptides in experiment [3] amounted to 4 peptides; in the experiment with HERC1 (human), 1 peptides; in experiment [4] it was 1 peptides; in experiment [5] it was 16 peptides.
